This note sets out measurements from PMC5192385.

Broadly, the stoichiometry N is a count of units in the complex or per binding partner.

In the experiment the target is depolymerase enzyme encoded by Klebsiella phage KP36 (depoKP36) (Klebsiella phage KP36). Nature of the experiment: SEC-MALS; 2 mg of purified, non-aggregated protein on an S200 10/30 column in 200 mM NaCl, 25 mM HEPES, 5% glycerol, pH 7.8; flow 0.5 mL/min. On the technique in general: Size exclusion chromatography separates by hydrodynamic size, large species first.

Sequence of depolymerase enzyme encoded by Klebsiella phage KP36 (depoKP36) (K9L8K6 whole entry): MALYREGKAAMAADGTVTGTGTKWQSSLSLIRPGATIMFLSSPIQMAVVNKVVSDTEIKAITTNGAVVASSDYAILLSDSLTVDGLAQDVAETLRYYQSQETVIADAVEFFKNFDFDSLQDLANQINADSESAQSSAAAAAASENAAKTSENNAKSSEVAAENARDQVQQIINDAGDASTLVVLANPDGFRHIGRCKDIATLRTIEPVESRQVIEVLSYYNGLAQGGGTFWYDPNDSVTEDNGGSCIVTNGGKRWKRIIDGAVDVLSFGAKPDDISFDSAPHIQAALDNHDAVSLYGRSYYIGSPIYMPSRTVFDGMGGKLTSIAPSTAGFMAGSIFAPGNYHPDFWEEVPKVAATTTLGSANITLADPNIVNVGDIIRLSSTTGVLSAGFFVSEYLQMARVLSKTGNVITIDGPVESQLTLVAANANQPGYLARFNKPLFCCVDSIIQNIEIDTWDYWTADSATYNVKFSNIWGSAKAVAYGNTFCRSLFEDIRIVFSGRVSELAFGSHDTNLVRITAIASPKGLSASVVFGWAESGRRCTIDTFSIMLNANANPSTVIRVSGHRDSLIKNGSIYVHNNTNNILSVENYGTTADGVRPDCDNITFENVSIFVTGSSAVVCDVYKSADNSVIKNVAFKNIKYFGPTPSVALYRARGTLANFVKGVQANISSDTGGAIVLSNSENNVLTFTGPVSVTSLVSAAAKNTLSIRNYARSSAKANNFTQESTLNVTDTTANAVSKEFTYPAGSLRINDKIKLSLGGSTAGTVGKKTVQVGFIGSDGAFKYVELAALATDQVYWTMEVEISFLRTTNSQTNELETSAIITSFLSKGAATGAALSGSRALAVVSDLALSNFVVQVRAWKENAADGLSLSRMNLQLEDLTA

“depolymerase enzyme encoded by Klebsiella phage KP36 (depoKP36)” yielded a stoichiometry N of 3.
